Laboratory results taken from PMC5522423, “Influence of C-terminal truncation of murine Serum amyloid A on fibril structure” (Scientific Reports, 2017).

Target: the molecule itself
Assay: in vitro fibril formation (negative-stain TEM, with ThT fluorescence, Congo red absorption and ATR-FTIR of the fibrils); 80 µM protein in 50 mM Tris buffer (pH 8.0), 7 days at 37 °C, 300 rpm; self-assembly into amyloid-like fibrils

B1: full-length murine serum amyloid A 1.1, SAA(1–103) (natural protein, mouse, UniProt P05367 20-122, looked up)
chain: GFFSFIGEAFQGAGDMWRAYTDMKEAGWKDGDKYFHARGNYDAAQRGPGGVWAAEKISDARESFQEFFGRGHEDTMADQEANRHGRSGKDPNYYRPPGLPAKY
notes: Serum amyloid A 1.1 (SAA1.1), mouse, 103 residues; also called murine SAA1.1; mSAA; source: E. coli RV308 (pMal-c2X vector), purified as described previously, lyophilized
  binding result: binds
